Patent publication US10258699B2, “Angiopep and derivatives thereof for imaging amyloids” (University Of Science And Technology Of China, priority 2014, dated 2019)

Tests used:
[1] = biological target: Aβ1-42 aggregates (Homo sapiens, UniProt P05067); test: biochemical
Description: Dissolving Aβ1-42 solid in PBS (PH 7.4) at a concentration of 0.25 mg/ml (55.38 uM), incubating in 37° C. water bath on a shaker for 42 h.
Preparing solutions (containing 10% DMF), containing the conjugate formed by angiopep-2 and FITC (10 uM) as well as Aβ1-42 aggregates (0, 5, 10 uM) or BSA (45 ug/mL), respectively; incubating the mixture solution at 37° C. for 30 minutes.
Preparing solutions (containing 10% DMF), containing the conjugate formed by angiopep-2 and FITC (0-3.75 uM) as well as Aβ1-42 aggregates (2.2 uM) or BSA (10 uM), respectively, incubating the mixture solution at 37° C. for 30 minutes.
Detecting the mixture solutions prepared above for their emission spectrum with fluorescence spectrophotometer, emission wavelength: 333 nm, maximum emission wavelength: 531 nm, in the range of 500-600 nm.
Plotting by using GraphPad Prism 5.0 (GraphPad Software, Inc., La Jolla, Calif., USA) and calculating equilibrium dissociation constant.

[2] = tested on: APP transgenic mice's brains; test: In vivo near-infrared imaging of APP transgenic mouse after intravenous injection; conditions: 13 mg/kg intravenous injection
Description: (§1) Optical in vivo imaging study was performed on IVIS imaging system, an optical imaging system from Caliper Life Sciences for imaging living body with an excitation filter set as Cy5.5, and emission spectrum band-pass filter as 640 nm. Before imaging, the mice were anaesthetized with a mixture gas of isoflurane and oxygen, and placed on an imaging plate with its face downward. White light photography (exposure time: 0.2 s) and near-infrared fluorescent imaging (exposure time: 5 s) were performed under the same field of vision (FOV) (FOV=12.5 cm, f/stop=1, Bin=1) at time points including before injection and several selected time points after intravenous injection. Each mouse received an injection dose of 13 mg/kg. White light photographs and near-infrared fluorescent images were superimposed to determine the size of intracranial portion. Finally, the imaging views were processed by using Living Image Software (Caliper Life Sciences).

[3] = tested on: amyloid deposits in APP transgenic mouse brain; test: Fluorescent microscopy of APP transgenic mouse's brain sections after intravenous injection of the Cy5.5 conjugate; assay type: in vivo; conditions: 13 mg/kg intravenous, brain removed after 30 minutes
amyloid deposits in APP transgenic mouse brain, sequence (P05067 672-711 limits assumed): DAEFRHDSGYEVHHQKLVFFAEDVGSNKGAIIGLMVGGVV
Description: 30 minutes after intravenous administration (13 mg/kg), the mice were sacrificed, and then their brains were removed and frozen in liquid nitrogen. […] The brain was cut into sections of about 25 m in thickness using a frozen tissue microtome (Lecia CM1950). The sections were then placed on a fluorescent microscope (IX8, OLYMPUS) for observation and photography.

[4] = tested on: APP transgenic mice's brains; conditions: mouse, in vivo
Description: as §1

Aβ1-42 aggregates, sequence (P05067 672-713 limits assumed): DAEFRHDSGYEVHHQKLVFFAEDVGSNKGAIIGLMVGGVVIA

Row | Compound | Kd [1] [nM] | passing through BBB and aggregation in brain in vivo ([2]; APP transgenic mice) | labeling of amyloid deposits in brain in vivo [3] | time after which cleared from brain [4] [h] | aggregation in brain (near-infrared imaging) ([2]; APP mice)
1 | C[C@@H](O)[C@H](NC(=O)CCCCCNC(=S)Nc1ccc2c(c1)C(=O)OC21c2ccc(O)cc2Oc2cc(O)ccc21)C(=O)N[C@@H](Cc1ccccc1)C(=O)N[C@@H](Cc1ccccc1)C(=O)N[C@@H](Cc1ccc(O)cc1)C(=O)NCC(=O)NCC(=O)N[C@@H](CO)C(=O)N[C@@H](CCCNC(=N)N)C(=O)NCC(=O)N[C@@H](CCCCN)C(=O)N[C@@H](CCCNC(=N)N)C(=O)N[C@@H](CC(N)=O)C(=O)N[C@@H](CC(N)=O)C(=O)N[C@@H](Cc1ccccc1)C(=O)N[C@@H](CCCCN)C(=O)N[C@H](C(=O)N[C@@H](CCC(=O)O)C(=O)N[C@@H](CCC(=O)O)C(=O)N[C@@H](Cc1ccc(O)cc1)C(=O)O)[C@@H](C)O [conjugate formed by angiopep-2 and FITC] | 676 | can pass through BBB and aggregate in APP transgenic mice's brains in vivo |  |  | 
2 | conjugate formed by angiopep-2 and Cy5.5: angiopep-2 (TFFYGGSRGKRNNFKTEEY) linked N-terminally via Acp to Cy5.5; near-infrared imaging conjugate, MW 2880.24 Da |  |  | can bind to and label the amyloid deposits | 20 | aggregated in APP mice's brains
